# B1: PGC-1α: S333A (protein)
# parent chain: MAWDMCSQDSVWSDIECAALVGEDQPLCPDLPELDLSELDVNDLDTDSFLGGLKWCSDQSEIISNQYNNEPANIFEKIDEENEANLLAVLTETLDSLPVDEDGLPSFDALTDGAVTTDNEASPSSMPDGTPPPQEAEEPSLLKKLLLAPANTQLSYNECSGLSTQNHAANHTHRIRTNPAIVKTENSWSNKAKSICQQQKPQRRPCSELLKYLTTNDDPPHTKPTENRNSSRDKCASKKKSHTQPQSQHAQAKPTTLSLPLTPESPNDPKGSPFENKTIERTLSVELSGTAGLTPPTTPPHKANQDNPFKASPKLKPSCKTVVPPPTKRARYSECSGTQGSHSTKKGPEQSELYAQLSKSSGLSRGHEERKTKRPSLRLFGDHDYCQSLNSKTDILINISQELQDSRQLDFKDASCDWQGHICSSTDSGQCYLRETLEASKQVSPCSTRKQLQDQEIRAELNKHFGHPCQAVFDDKSDKTSELRDGDFSNEQFSKLPVFINSGLAMDGLFDDSEDESDKLSYPWDGTQPYSLFDVSPSCSSFNSPCRDSVSPPKSLFSQRPQRMRSRSRSFSRHRSCSRSPYSRSRSRSPGSRSSSRSCYYYESSHYRHRTHRNSPLYVRSRSRSPYSRRPRYDSYEAYEHERLKRDEYRKEHEKRESERAKQRERQKQKAIEERRVIYVGKIRPDTTRTELRDRFEVFGEIEECTVNLRDDGDSYGFITYRYTCDAFAALENGYTLRRSNETDFELYFCGRKQFFKSNYADLDTNSDDFDPASTKSKYDSLDFDSLLKEAQRSLRR
# B2: PGC-1α: OGT overexpression (protein)
# parent chain: B1 parent chain
# Key:
# [1] = IP, anti-ubiquitin blot with MG132, HEK 293T; conditions: control: wild type
# [2] = transcriptional activity assay; conditions: glycan lost; control: wild type
# [3] = Figure S3B, method not described in text; conditions: glycan lost; control: wild type
Protein,other: ubiquitination ([1]; glycan lost),other: transcriptional activity [2],other: phosphorylation [3],other: ubiquitination ([1]; glycan gained)
B1,increases,no change,no change,
B2,,,,decreases

# Source: article PMC3480732
